Four variants from IntAct's records for PubMed 38225382 can be followed below.

B1: Syntaxin-1B (Homo sapiens), P61266 (parent)
chain: MKDRTQELRSAKDSDDEEEVVHVDRDHFMDEFFEQVEEIRGCIEKLSEDVEQVKKQHSAILAAPNPDEKTKQELEDLTADIKKTANKVRSKLKAIEQSIEQEEGLNRSSADLRIRKTQHSTLSRKFVEVMTEYNATQSKYRDRCKDRIQRQLEITGRTTTNEELEDMLESGKLAIFTDDIKMDSQMTKQALNEIETRHNEIIKLETSIRELHDMFVDMAMLVESQGEMIDRIEYNVEHSVDYVERAVSDTKKAVKYQSKARRKKIMIIICCVVLGVVLASSIGGTLGL
partner: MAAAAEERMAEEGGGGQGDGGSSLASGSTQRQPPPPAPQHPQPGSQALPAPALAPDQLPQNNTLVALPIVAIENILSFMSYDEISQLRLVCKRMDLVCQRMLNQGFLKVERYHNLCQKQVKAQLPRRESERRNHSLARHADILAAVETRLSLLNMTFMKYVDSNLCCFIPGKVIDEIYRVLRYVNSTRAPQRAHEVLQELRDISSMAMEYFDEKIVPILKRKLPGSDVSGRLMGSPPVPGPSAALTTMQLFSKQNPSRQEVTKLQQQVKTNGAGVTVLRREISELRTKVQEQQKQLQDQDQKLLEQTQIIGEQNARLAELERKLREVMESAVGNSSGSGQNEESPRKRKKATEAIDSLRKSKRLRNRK

This experiment covers variants of B1. Particulars: with fbx28_human FBXO28, Q9NVF7.
On to MKDRTQELRSAKDSDDEEEVVHVDRDHFMDEFFEQVEEIRGCIEKLSEDVEQVKKQHSAILAAPNPDEKTKQELEDLTADIKKTANKVRSKLKAIEQSIEQEEGLNRSSADLRIRKTQHSTLSRKFVEVMTEYNATQSKYRDRCKDRIQRQLEITGRTTTNEELEDMLESGKLAIFTDDIKMDSQMTKQALNEIETRHNEIIKLETSIRELHDMFEDMAMLVESQGEMIDRIEYNVEHSVDYVERAVSDTKKAVKYQSKARRKKIMIIICCVVLGVVLASSIGGTLGL [V216E], for which the “effect of a mutation on the interaction” value was “decreasing interaction strength”.
With MKDRTQELRSAKDSDDEEEVVHVDRDHFMDEFFEQVEEIRGCIEKLSEDVEQVKKQHSAILAAPNPDEKTKQELEDLTADIKKTANKVRSKLKAIEQSIEQEEGLNRSSADLRIRKTQHSTLSRKFVEVMTEYNATQSKYRDRCKDRIQRQLEITGRTTTNEELEDMLESGKLAIFTDDIKMDSQMTKQALNEIETRHNEIIKLETSIRELHDMFVDMAMLVESQGEMIDRIEYNVEHPVDYVERAVSDTKKAVKYQSKARRKKIMIIICCVVLGVVLASSIGGTLGL [S239P], the “effect of a mutation on the interaction” value is “decreasing interaction strength”.
For the variant MKDRTQELRSAKDSDDEEEVVHVDRDHFMDEFFEQVEEIRGCIEKLSEDVEQVKKQHSAILAAPNPDEKTKQELEDLTADIKKTANKVRSKLKAIEQSIEQEEGLNRSSADLRIRKTQHSTLSRKFVEVMTEYNATQSKYRDRCKDRIQRQLEITGRTTTNEELEDMLESGKLAIFTDDIKMDSQMTKQALNEIETRHNEIIKLETSIRELHDMFVDMAMLVESQREMIDRIEYNVEHSVDYVERAVSDTKKAVKYQSKARRKKIMIIICCVVLGVVLASSIGGTLGL [G226R], the “effect of a mutation on the interaction” value is “decreasing interaction strength”.
Then MKDRTQELRSAKDSDDEEEVVHVDRDHFMDEFFEQVEEIRGCIEKLSEDVEQVKKQHSAILAAPNPDEKTKQELEDLTADIKKTANKVRSKLKAIEQSIEQEEGLNRSSADLRIRKTQHSTLSRKFVEVMTEYEATQSKYRDRCKDRIQRQLEITGRTTTNEELEDMLESGKLAIFTDDIKMDSQMTKQALNEIETRHNEIIKLETSIRELHDMFVDMAMLVESQGEMIDRIEYNVEHSVDYVERAVSDTKKAVKYQSKARRKKIMIIICCVVLGVVLASSIGGTLGL [N134E], with “with no effect”.
